In patent US20230265151A1, “GIP/GLP1 CO-AGONIST COMPOUNDS” (priority 2020, published 2023):
*1 amine or outer side, *2 acyl side, *3 side chain or, on linkers, in order; H or OH if unused. Where no end group is shown, it is not given here. Side-chain parts run from the residue outwards. [ ]: non-standard residue; d: D form. The star is where a group is joined. Decanoyl(10-(4-HOOC-PhO)) = O=C(O)c1ccc(OCCCCCCCCCC(=O)*)cc1; αMePhe(2-F) = C[C@](N)(Cc1ccccc1F)C(=O)O; γGlu = O=C(O)[C@H](CCC(=O)[*:2])N[*:1]; C14 diacid = O=C(O)CCCCCCCCCCCCC(=O)*; αMeY = C[C@](N)(Cc1ccc(O)cc1)C(=O)O; αMeL = CC(C)C[C@](C)(N)C(=O)O; Orn = NCCC[C@H](N)C(=O)O; AEEA = NCCOCCOCC(=O)O; Aib = CC(C)(N)C(=O)O

T1: human GIP receptor (human, UniProt P48546 22-466)
T1 sequence (looked up): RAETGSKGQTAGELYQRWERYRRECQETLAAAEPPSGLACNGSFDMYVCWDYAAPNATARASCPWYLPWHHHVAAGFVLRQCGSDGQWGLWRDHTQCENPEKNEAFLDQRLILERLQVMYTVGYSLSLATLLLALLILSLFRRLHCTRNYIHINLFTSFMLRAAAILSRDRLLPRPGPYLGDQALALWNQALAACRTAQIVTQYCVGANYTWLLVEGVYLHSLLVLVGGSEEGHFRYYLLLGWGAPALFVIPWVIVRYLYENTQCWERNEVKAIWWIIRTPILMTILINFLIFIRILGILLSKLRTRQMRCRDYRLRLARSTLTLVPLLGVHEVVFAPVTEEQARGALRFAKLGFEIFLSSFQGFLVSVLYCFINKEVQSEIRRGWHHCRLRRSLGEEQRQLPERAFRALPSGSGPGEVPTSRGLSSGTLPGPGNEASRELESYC

T2: human GIP receptor (human) (UniProt P48546)
T2 sequence (looked up): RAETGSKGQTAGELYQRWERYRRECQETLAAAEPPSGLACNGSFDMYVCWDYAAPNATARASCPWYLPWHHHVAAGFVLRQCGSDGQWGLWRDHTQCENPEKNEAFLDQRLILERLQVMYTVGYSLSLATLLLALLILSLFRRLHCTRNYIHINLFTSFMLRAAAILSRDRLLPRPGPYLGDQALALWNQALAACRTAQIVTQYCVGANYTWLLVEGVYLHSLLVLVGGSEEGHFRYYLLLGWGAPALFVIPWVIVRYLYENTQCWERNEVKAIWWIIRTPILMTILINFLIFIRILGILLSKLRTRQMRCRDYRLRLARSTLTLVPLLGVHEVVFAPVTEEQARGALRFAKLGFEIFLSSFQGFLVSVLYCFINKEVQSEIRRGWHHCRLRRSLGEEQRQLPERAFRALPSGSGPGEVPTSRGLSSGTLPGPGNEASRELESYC

B1: Example 329 (peptide)
peptide: Y[Aib]EGT[αMePhe(2-F)]TSDV[Aib]I[αMeL]LD[Orn]IAQ[Aib]K([AEEA-AEEA-γGlu-C14 diacid])FI[dE][αMeY]LIK([AEEA-AEEA-γGlu-C14 diacid])GGPSSGAPPPS-NH2
modifications: N-terminus assumed
SMILES: CC[C@H](C)[C@H](NC(=O)[C@H](CCCN)NC(=O)[C@H](CC(=O)O)NC(=O)[C@H](CC(C)C)NC(=O)[C@](C)(CC(C)C)NC(=O)[C@@H](NC(=O)C(C)(C)NC(=O)[C@@H](NC(=O)[C@H](CC(=O)O)NC(=O)[C@H](CO)NC(=O)[C@@H](NC(=O)[C@](C)(Cc1ccccc1F)NC(=O)[C@@H](NC(=O)CNC(=O)[C@H](CCC(=O)O)NC(=O)C(C)(C)NC(=O)[C@@H](N)Cc1ccc(O)cc1)[C@@H](C)O)[C@@H](C)O)C(C)C)[C@@H](C)CC)C(=O)N[C@@H](C)C(=O)N[C@@H](CCC(N)=O)C(=O)NC(C)(C)C(=O)N[C@@H](CCCCNC(=O)COCCOCCNC(=O)COCCOCCNC(=O)CC[C@H](NC(=O)CCCCCCCCCCCCC(=O)O)C(=O)O)C(=O)N[C@@H](Cc1ccccc1)C(=O)N[C@H](C(=O)N[C@H](CCC(=O)O)C(=O)N[C@@](C)(Cc1ccc(O)cc1)C(=O)N[C@@H](CC(C)C)C(=O)N[C@H](C(=O)N[C@@H](CCCCNC(=O)COCCOCCNC(=O)COCCOCCNC(=O)CC[C@H](NC(=O)CCCCCCCCCCCCC(=O)O)C(=O)O)C(=O)NCC(=O)NCC(=O)N1CCC[C@H]1C(=O)N[C@@H](CO)C(=O)N[C@@H](CO)C(=O)NCC(=O)N[C@@H](C)C(=O)N1CCC[C@H]1C(=O)N1CCC[C@H]1C(=O)N1CCC[C@H]1C(=O)N[C@@H](CO)C(N)=O)[C@@H](C)CC)[C@@H](C)CC
B2: Example 331 (peptide)
peptide: YXEGTXTSDXXIXLDXIAQXKFIXXLIKGGPSSGAPPPS
modifications: Y-Aib-EGT-αMeF(2F)-TSD-4Pal-Aib-I-αMeL-LD-Orn-IAQ-Aib-K(2-[2-(2-Amino-ethoxy)-ethoxy]-acetyl)2-(γ-Glu)-(11-(4-carboxyphenoxy)undecanoyl)FI-(D-Glu)-αMeY-LIK((2-[2-(2-Amino-ethoxy)-ethoxy]-acetyl)2-(γ-Glu)-(11-(4-carboxyphenoxy)undecanoyl)GGPSSGAPPPS-NH2)
B3: Example 336 (peptide)
peptide: YXEGTXTSDXXIXLDXKAQXKFIXXLIEGGPSSGAPPPS
modifications: Y-Aib-EGT-αMeF(2F)-TSD-4Pal-Aib-I-αMeL-LD-Orn-K((2-[2-(2-Amino-ethoxy)-ethoxy]-acetyl)-(γ-Glu)-CO-(CH2)12-CO2H)AQ-Aib-K((2-[2-(2-Amino-ethoxy)-ethoxy]-acetyl)-(γ-Glu)-CO-(CH2)12-CO2H)FI-(D-Glu)-αMeY-LIEGGPSSGAPPPS-NH2
B4: Example 337 (peptide)
peptide: YXEGTXTSDXXIXLDXKAQXEFIXXLIKGGPSSGAPPPS
modifications: Y-Aib-EGT-αMeF(2F)-TSD-4Pal-Aib-I-αMeL-LD-Orn-K((2-[2-(2-Amino-ethoxy)-ethoxy]-acetyl)-(γ-Glu)-CO-(CH2)12-CO2H)AQ-Aib-EFI-(D-Glu)-αMeY-LIK((2-[2-(2-Amino-ethoxy)-ethoxy]-acetyl)-(γ-Glu)-CO-(CH2)12-CO2H)GGPSSGAPPPS-NH2
B5: Example 340 (peptide)
peptide: YXEGTXTSDXXIXLDXIAQXKFIXXLIKGGPSSGAPPPS
modifications: Y-Aib-EGT-αMeF(2F)-TSD-4Pal-Aib-I-αMeL-LD-Orn-IAQ-Aib-K((2-[2-(2-Amino-ethoxy)-ethoxy]-acetyl)-(γ-Glu)-CO-(CH2)12-CO2H)FI-(D-Glu)-αMeY-LIK((2-[2-(2-Amino-ethoxy)-ethoxy]-acetyl)-(γ-Glu)-CO-(CH2)12-CO2H)GGPSSGAPPPS-NH2
B6: Example 341 (peptide)
peptide: YXEGTXTSDXXIXLDXIAQXKFIXXLIEGGPSSGAPPPSK
modifications: Y-Aib-EGT-αMeF(2F)-TSD-4Pal-Aib-I-αMeL-LD-Orn-IAQ-Aib-K((2-[2-(2-Amino-ethoxy)-ethoxy]-acetyl)-(γ-Glu)-CO-(CH2)12-CO2H)FI-(D-Glu)-αMeY-LIEGGPSSGAPPPSK((2-[2-(2-Amino-ethoxy)-ethoxy]-acetyl)-(γ-Glu)-CO-(CH2)12-CO2H)-NH2

Assays:
Experiment in all cases: cell-based or functional assay
human GLP-1 receptor = human GLP-1 receptor (human, UniProt P43220 24-463)
human GIP receptor = biological target: T1, human GIP receptor
human glucagon receptor = human glucagon receptor (human, UniProt P47871 26-477)
[1] = biological target: T2, human GIP receptor (human)
hGLP-1R = hGLP-1R (Homo sapiens, UniProt P43220)
[2] = biological target: human glucagon receptor (human) (UniProt P47871)

Binder | cAMP EC50 (1.0% HSA) (human GLP-1 receptor) [nM] | cAMP Emax (1.0% HSA) (human GLP-1 receptor) [%] | cAMP EC50 (1.0% HSA) (human GIP receptor) [nM] | cAMP Emax (1.0% HSA) (human GIP receptor) [%] | cAMP EC50 (1.0% HSA) (human glucagon receptor) [nM] | cAMP EC50 [1] [nM] | cAMP Emax [1] [%] | cAMP EC50 (hGLP-1R) [nM] | cAMP Emax (hGLP-1R) [%] | cAMP EC50 [2] [nM]
Y[Aib]EGT[αMePhe(2-F)]TSDV[Aib]I[αMeL]LD[Orn]K([AEEA-AEEA-γGlu-Decanoyl(10-(4-HOOC-PhO))])AQ[Aib]EFI[dE][αMeY]LIK([AEEA-AEEA-γGlu-Decanoyl(10-(4-HOOC-PhO))])GGPSSGAPPPS-NH2 [Example 326] | 26.1 | 96.1 | 4.62 | 88.7 | > 9950 | 0.0338 | 102 | 0.186 | 94.4 | > 9950
B1 | 74.7 | 88.3 | 5.44 | 100 | > 9950 | 0.015 | 109 | 0.353 | 104 | > 9950
Y[Aib]EGT[αMePhe(2-F)]TSDV[Aib]I[αMeL]LD[Orn]IAQ[Aib]K([AEEA-AEEA-γGlu-Decanoyl(10-(4-HOOC-PhO))])FI[dE][αMeY]LIK([AEEA-AEEA-γGlu-Decanoyl(10-(4-HOOC-PhO))])GGPSSGAPPPS-NH2 [Example 330] | 85.2 | 85 | 6.26 | 103 | > 9950 | 0.0185 | 112 | 0.477 | 103 | > 9950
B2 | 223 | 114 | 8.31 | – | > 9950 | 0.0113 | 101 | 0.436 | 99.6 | > 9950
B3 | 47 | 103 | 2.92 | – | > 10100 | 0.0136 | 109 | 0.338 | 107 | > 10100
B4 | 53.6 | – | 2.65 | – | > 10100 | 0.0151 | 103 | 0.444 | 107 | > 10100
B5 | 122 | 112 | 9.91 | 87.9 | > 9950 | 0.0206 | 95.2 | 0.409 | 105 | > 9950
B6 | 95.8 | 113 | 5.74 | 83.6 | > 9950 | 0.0127 | 91.4 | 0.329 | 99.9 | > 9950
Y[Aib]EGT[αMePhe(2-F)]TSDV[Aib]I[αMeL]LD[Orn]K([AEEA-AEEA-γGlu-C14 diacid])AQ[Aib][Orn]FI[dE][αMeY]LIK([AEEA-AEEA-γGlu-C14 diacid])GGPSSGAPPPS-NH2 [Example 350] | 6.4 | 91.4 | 5.82 | – | > 9950 | 0.0288 | 101 | 0.202 | 95.9 | > 9950
